Measurements reported in paper doi:10.1101/2023.08.13.546412 (bioRxiv, 2023).

Molecular target: T1, GST-AtSK21 (Arabidopsis thaliana, UniProt Q39011 1-380)
T1 sequence (looked up): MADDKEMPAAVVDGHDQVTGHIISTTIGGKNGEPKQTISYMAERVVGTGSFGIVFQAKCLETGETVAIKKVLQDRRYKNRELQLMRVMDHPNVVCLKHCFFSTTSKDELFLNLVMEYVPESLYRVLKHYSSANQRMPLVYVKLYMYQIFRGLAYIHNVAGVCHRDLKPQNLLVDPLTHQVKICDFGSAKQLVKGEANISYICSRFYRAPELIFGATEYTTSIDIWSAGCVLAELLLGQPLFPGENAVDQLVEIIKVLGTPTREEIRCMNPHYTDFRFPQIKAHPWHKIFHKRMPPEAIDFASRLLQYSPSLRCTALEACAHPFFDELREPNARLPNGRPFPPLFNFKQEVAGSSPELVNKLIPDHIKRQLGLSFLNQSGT
Experiment: pull-down

binding result: binds
B1: MBP-WOX5 (natural protein, Arabidopsis thaliana, UniProt Q8H1D2 1-182, looked up)
chain: MSFSVKGRSLRGNNNGGTGTKCGRWNPTVEQLKILTDLFRAGLRTPTTDQIQKISTELSFYGKIESKNVFYWFQNHKARERQKRRKISIDFDHHHHQPSTRDVFEISEEDCQEEEKVIETLQLFPVNSFEDSNSKVDKMRARGNNQYREYIRETTTTSFSPYSSCGAEMEHPPPLDLRLSFL
